Data reported in patent publication US20240239894A1, “THERAPEUTIC BINDING MOLECULES” (MedImmune Limited, priority 2020, published 2024).
Positions count from the first letter of the chain named. Where two headings read alike, the source gives them in different places.

T1: HumanB7-H4 (Homo sapiens, UniProt Q7Z7D3)
T1 construct: Human B7H4 ECD; FLAG; 10His; made in house
T1 sequence (Q7Z7D3 25-259 limits assumed): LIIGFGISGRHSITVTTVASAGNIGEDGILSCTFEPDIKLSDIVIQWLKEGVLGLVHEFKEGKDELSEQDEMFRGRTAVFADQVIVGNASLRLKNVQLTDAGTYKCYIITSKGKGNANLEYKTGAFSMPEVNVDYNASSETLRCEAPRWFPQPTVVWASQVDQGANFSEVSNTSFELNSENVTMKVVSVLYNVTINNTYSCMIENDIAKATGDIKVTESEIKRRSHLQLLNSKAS

T2: MurineB7-H4 (Mus musculus, UniProt Q7TSP5)
T2 construct: Mouse B7H4 ECD; FLAG (C); 10His (C); made in house
T2 sequence (Q7TSP5 25-257 limits assumed): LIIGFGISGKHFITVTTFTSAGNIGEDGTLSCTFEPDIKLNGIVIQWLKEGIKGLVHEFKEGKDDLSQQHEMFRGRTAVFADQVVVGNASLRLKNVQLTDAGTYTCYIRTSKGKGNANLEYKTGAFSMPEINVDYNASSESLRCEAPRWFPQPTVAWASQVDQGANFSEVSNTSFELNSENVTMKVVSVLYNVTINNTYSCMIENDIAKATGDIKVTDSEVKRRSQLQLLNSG

T3: monomeric B7-H4-FLAG (Homo sapiens, UniProt Q7Z7D3)
T3 construct: 10His; made in house
T3 sequence (Q7Z7D3 25-259 limits assumed): T1 sequence (Q7Z7D3 25-259 limits assumed)

T4: recombinant mouse B7-H4 (Mus musculus, UniProt Q7TSP5)
T4 sequence (Q7TSP5 25-257): T2 sequence (Q7TSP5 25-257 limits assumed)

B1: ZY0EOB-F05: anti-B7-H4 antibody clone, VH SEQ ID NO: 35, VL SEQ ID NO: 36 (antibody, V domains shown)
VH: QVQLQESGPGLVKPSQTLSLTCTVSDGSISSGGYYWSWIRQHPGKGLEWIGNIYYSGSTYYNPSLKSRVTISVDTSKNQFSLKLNSVTAADTAVYYCATEKALATVTPSGYENYYTVDVWGQGTTVTVSS
VL: DIQLTQSPSFLSASVGDRVTITCWASQGISSYLAWYQQKPGKAPKLLIYAASTLQSGVPSRFSGSGSGTEFTLTISSLQPEDFATYYCQHLNSYPLTFGGGTKVEIK
B2: ZY0E05-E07: anti-B7-H4 antibody clone, VH SEQ ID NO: 37, VL SEQ ID NO: 38 (antibody, V domains shown)
VH: B1 VH with D26G, N85S, T99R, T105S, T107I, T116V
VL: B1 VL with D17G, S30A, S31G
B3: ZY0EP0-C07: anti-B7-H4 antibody clone, VH SEQ ID NO: 39, VL SEQ ID NO: 40 (antibody, V domains shown)
VH: QVQLVESGGVLVKPGGSLRLSCAASGFTLSDYYMSWIRQAPGMGLEWVSYISSSGSTIYYTDSVKGRFTISRDSAKNSLYLQMNSLRAEDTAVYYCARDGVGFDYWGQGTLVTVSS
VL: EIVLTQSPGTLSLFPGERATLSCRASQSVSSSYLAWYQQKPGQSPRLLIYAASSRATGIPDRFSGSGSGTDFTLTISRLEPEDFAVYYCQQYGSSPLYTFGQGTKLEIK
B4: ZY0EQD-E02: anti-B7-H4 antibody clone, VH SEQ ID NO: 33, VL SEQ ID NO: 34 (antibody, V domains shown)
VH: QVQLQQWGAGLLKPSETLSLTCAVYGGSFSGYYWNWIRQPPGKGLEWIGEINHSGSTSYNPSLKSRVTISVDTSKNQFSLKLSSVTAADTAVYYCARVLYNWNVDSWGQGTLVTVSS
VL: DIQMTQSPSSLSASVGDRVTITCRASQDIRNDVGWYQQKPGKAPKRLIYAASRLQSGVPSRFSGSGSGTEFTLTISSLQPEDFATYYCLQHNSYPRTFGQGTKVEIK
B5: E02-INT Fab: antigen binding fragment of anti-B7-H4 antibody E02-INT (antibody, V domains shown)
VH: B4 VH with T21A, A23T
VL: B4 VL
B6: ZY0EPQ-E02: anti-B7-H4 antibody clone, VH SEQ ID NO: 31, VL SEQ ID NO: 32 (antibody, V domains shown)
VH: B4 VH with S58N, S70L, V98N, V104L
VL: B4 VL with D28G, V33L, K42R, A50V, R53S

Key:
[1] = system: transfected CHOs (full length B7-H4 vector); experiment: On-cell western; type: cell-based, Chinese hamster
Procedure: (§1) The on-cell western method was developed and used to run 5 exemplary antibody clones with the following cells: SKBR3, A549, OVCAR4 (all minus transfections with B7-H4 vector), CHO and HEK cells (plus and minus transfection with full length B7-H4 vector).
(§2) Cells were detached from T175 flasks using Accutase and counted. Transfection method used was essentially that stated in the Invitrogen Lipofectamine LTX protocol (high throughput protocol using the reverse transfection method). 100 μl of cells (4.5×10^4 per 100 μl) was added to 96 well plates containing the DNA-lipofectamine mix. Plates incubated at 37° C. for 18 hours and fixed using 10% buffered formalin overnight. Plates were blocked with Odyssey blocking buffer, incubated with appropriate primary antibodies overnight followed by washing and detection with the appropriate Odyssey secondary antibody.
(§3) Plates were air dried and scanned using the Odyssey Imager using the recommended scan levels provided by the manufacturer.

OVCAR4 cells = experiment: On-cell western; type: cell-based, human
Procedure: as §1, §2, §3

[2] = system: B7-H4-SV (splice variant); experiment: ForteBio Octet affinity
HumanB7-H4 = target: T1, HumanB7-H4; experiment: ForteBio Octet affinity; type: binding
[3] = system: transfected HEKs (full length B7-H4 vector); experiment: On-cell western; type: cell-based
Procedure: as §1, §2, §3

MurineB7-H4 = target: T2, MurineB7-H4; experiment: ForteBio Octet affinity; type: binding, murine
monomeric B7-H4-FLAG = target: T3, monomeric B7-H4-FLAG; experiment: HTRF epitope binning; type: binding
Procedure: Epitope binning was performed in an HTRF assay format using the exemplary antibodies (IgG1-TM) conjugated with DyLight-649 binding to the monomeric B7-H4-FLAG LCD with detection with europium conjugated anti-FLAG antibody.
Bin 1 was defined with the ZY0EPQ-E02, ZY0EQD-E02 and ZY0E05-E07 antibodies fully inhibiting each other, and only partial inhibiting ZY0EP0-C07. Bin 2 was defined with the ZY0EOB-F05 antibody fully competing with all antibodies and all antibodies fully competing with it. Bin 3 was defined with ZY0EP0-C07 partially competing with antibodies ZY0EPQ-E02, ZY0EQD-E02 and ZY0E05-E07 (Bin 1).

[4] = system: B7-H4 from human (including a splice variant), cynomolgus macaque, mouse and rat; experiment: Clone ZY0EQD_E02 specificity ELISA; type: binding; settings: Maia format mAbs
[5] = system: SKBR3, A549, OVCAR4, CHO and HEK cells; experiment: On-cell western, panel of cell types; type: cell-based; settings: compared with control antibodies (lanes E, U, R, S)
Procedure: as §1, §2, §3

recombinant mouse B7-H4 = target: T4, recombinant mouse B7-H4; experiment: SPR affinity of Fab; type: binding
Procedure: The binding affinity of anti-B7-H4 antibody E02-INT Fab for recombinant human, cynomolgus monkey, and mouse B7-H4 variants were determined by surface plasmon resonance (SPR).

Molecule	binding to transfected CHOs [1]	binding to OVCAR4 cells (OVCAR4 cells)	kdis ([2]; hIgG1 (n = 1))	kon ([2]; hIgG1 (n = 1))	kdis ([2]; hIgG1-TM (n = 4-7))	kon ([2]; hIgG1-TM (n = 4-7))	kdis (HumanB7-H4; hIgG1 (n = 1))	kon (HumanB7-H4; hIgG1 (n = 1))	kdis (HumanB7-H4; hIgG1-TM (n = 4-7))	kon (HumanB7-H4; hIgG1-TM (n = 4-7))	binding to transfected HEKs [3]	kdis (MurineB7-H4; hIgG1 (n = 1))	kon (MurineB7-H4; hIgG1 (n = 1))	kdis (MurineB7-H4; hIgG1-TM (n = 4-7))	kon (MurineB7-H4; hIgG1-TM (n = 4-7))	binding across cell types [5]	other results
B1	bind	bind	0.000598 s⁻¹	4710 M⁻¹ s⁻¹	0.000584 s⁻¹	3350 M⁻¹ s⁻¹	0.000362 s⁻¹	31000 M⁻¹ s⁻¹	0.000355 s⁻¹	26500 M⁻¹ s⁻¹	good results	0.000493 s⁻¹	24900 M⁻¹ s⁻¹	0.000476 s⁻¹	18700 M⁻¹ s⁻¹		
B2	bind	bind	0.000528 s⁻¹	2910 M⁻¹ s⁻¹	0.000499 s⁻¹	1890 M⁻¹ s⁻¹	0.000318 s⁻¹	21700 M⁻¹ s⁻¹	0.000338 s⁻¹	17100 M⁻¹ s⁻¹	good results	0.000415 s⁻¹	17900 M⁻¹ s⁻¹	0.000361 s⁻¹	12100 M⁻¹ s⁻¹		
B3							0.000363 s⁻¹	48800 M⁻¹ s⁻¹	0.000397 s⁻¹	41600 M⁻¹ s⁻¹		0.000551 s⁻¹	60200 M⁻¹ s⁻¹	0.000524 s⁻¹	43000 M⁻¹ s⁻¹		Epitope Bin (monomeric B7-H4-FLAG): Bin 3; Epitope Bin (monomeric B7-H4-FLAG; listed as ZY0EPO-C07): 3; KD (nM) ([2]; hIgG1 (n = 1)): No Binding; KD (nM) ([2]; hIgG1-TM (n = 4-7)): No Binding; Octet KD (nM) ([2]; summary Table 14): No Binding
B4		bind	0.00349 s⁻¹	4190 M⁻¹ s⁻¹	0.00269 s⁻¹	3360 M⁻¹ s⁻¹	0.00321 s⁻¹	216000 M⁻¹ s⁻¹	0.00278 s⁻¹	193000 M⁻¹ s⁻¹		0.213 s⁻¹	341000 M⁻¹ s⁻¹	0.126 s⁻¹	203000 M⁻¹ s⁻¹	bind a wide spectrum of cell types	binding profile to B7-H4 antigens [4]: binding to human, cynomolgus, mouse and rat B7-H4
B5																	fold lower affinity for mouse than for human B7-H4 antigen (recombinant mouse B7-H4): approximately 100 fold
B6		bind	0.00252 s⁻¹	2460 M⁻¹ s⁻¹	0.00229 s⁻¹	1380 M⁻¹ s⁻¹	0.00208 s⁻¹	85900 M⁻¹ s⁻¹	0.00182 s⁻¹	70900 M⁻¹ s⁻¹		0.0498 s⁻¹	100000 M⁻¹ s⁻¹	0.0304 s⁻¹	76700 M⁻¹ s⁻¹	bind a wide spectrum of cell types	
